# Measurements: US20120090043A1, “TARGETS FOR RETROVIRUS ASSOCIATED DISEASES” (priority 2009, published 2012)
# B1: TFIP11: human host interactor protein, Gene ID 24144, expressed from transfected ORF vector (protein)
# chain: MSLSHLYRDGEGRIDDDDDERENFEITDWDLQNEFNPNRQRHWQTKEEATYGVWAERDSDDERPSFGGKRARDYSAPVNFISAGLKKGAAEEAELEDSDDEEKPVKQDDFPKDFGPRKLKTGGNFKPSQKGFAGGTKSFMDFGSWERHTKGIGQKLLQKMGYVPGRGLGKNAQGIINPIEAKQRKGKGAVGAYGSERTTQSMQDFPVVDSEEEAEEEFQKELSQWRKDPSGSKKKPKYSYKTVEELKAKGRISKKLTAPQKELSQVKVIDMTGREQKVYYSYSQISHKHNVPDDGLPLQSQQLPQSGKEAKAPGFALPELEHNLQLLIDLTEQEIIQNDRQLQYERDMVVNLFHELEKMTEVLDHEERVISNLSKVLEMVEECERRMQPDCSNPLTLDECARIFETLQDKYYEEYRMSDRVDLAVAIVYPLMKEYFKEWDPLKDCTYGTEIISKWKSLLENDQLLSHGGQDLSADAFHRLIWEVWMPFVRNIVTQWQPRNCDPMVDFLDSWVHIIPVWILDNILDQLIFPKLQKEVENWNPLTDTVPIHSWIHPWLPLMQARLEPLYSPIRSKLSSALQKWHPSDSSAKLILQPWKDVFTPGSWEAFMVKNIVPKLGMCLGELVINPHQQHMDAFYWVIDWEGMISVSSLVGLLEKHFFPKWLQVLCSWLSNSPNYEEITKWYLGWKSMFSDQVLAHPSVKDKFNEALDIMNRAVSSNVGAYMQPGARENIAYLTHTERRKDFQYEAMQERREAENMAQRGIGVAASSVPMNFKDLIETKAEEHNIVFMPVIGKRHEGKQLYTFGRIVIYIDRGVVFVQGEKTWVPTSLQSLIDMAK
# B2: ZNF614: human host interactor protein, Gene ID 80110, expressed from transfected ORF vector (protein)
# chain: MIKTQESLTLEDVAVEFSWEEWQLLDTAQKNLYRDVMVENYNHLVSLGYQTSKPDVLSKLAHGQEPWTTDAKIQNKNCPGIGKVDSHLQEHSPNQRLLKSVQQCNGQNTLRNIVHLSKTHFPIVQNHDTFDLYRKNLKSSLSLINQKRRHGINNPVEFIGGEKTLLHGKHERTHTKTRFSENAKCIHTKFQVFKHQRTQKIEKPHACIECEQTFLRKSQLIYHENICIQENPGSGQCEKLSRSVLFTKHLKTNTTDKICIPNEYRKGSTVKSSLITHQQTHTEEKSYMCSECGKGFTMKRYLIAHQRTHSGEKPYVCKECGKGFTVKSNLIVHQRTHTGEKPYICSECGKGFTMKRYLVVHQRTHTGEKPYMCSECGKGFTVKSNLIVHQRSHTGEKSYICSECGKGFTVKRTLVIHQRTHTGEKSYICNECGKGFTTKRTLIIHQRTHTGEKPYECNECGKAFSQKICLIQHERCHTGKTPFVCTECGKSYSHKYGLITHQRIHTGEKPYECNECGKAFTTKSVLNVHQRTHTGERPYGCSDCEKAFSHLSNLVKHKKMHTREMGRISQVENSCNGESQLLPYK
# B3: LZTS2: human host interactor protein, Gene ID 84445, expressed from transfected ORF vector (protein)
# chain: MAIVQTLPVPLEPAPEAATAPQAPVMGSVSSLISGRPCPGGPAPPRHHGPPGPTFFRQQDGLLRGGYEAQEPLCPAVPPRKAVPVTSFTYINEDFRTESPPSPSSDVEDAREQRAHNAHLRGPPPKLIPVSGKLEKNMEKILIRPTAFKPVLPKPRGAPSLPSFMGPRATGLSGSQGSLTQLFGGPASSSSSSSSSSAADKPLAFSGWASGCPSGTLSDSGRNSLSSLPTYSTGGAEPTTSSPGGHLPSHGSGRGALPGPARGVPTGPSHSDSGRSSSSKSTGSLGGRVAGGLLGSGTRASPDSSSCGERSPPPPPPPPSDEALLHCVLEGKLRDREAELQQLRDSLDENEATMCQAYEERQRHWQREREALREDCAAQAQRAQRAQQLLQLQVFQLQQEKRQLQDDFAQLLQEREQLERRCATLEREQRELGPRLEETKWEVCQKSGEISLLKQQLKESQAELVQKGSELVALRVALREARATLRVSEGRARGLQEAARARELELEACSQELQRHRQEAEQLREKAGQLDAEAAGLREPPVPPATADPFLLAESDEAKVQRAAAGVGGSLRAQVERLRVELQRERRRGEEQRDSFEGERLAWQAEKEQVIRYQKQLQHNYIQMYRRNRQLEQELQQLSLELEARELADLGLAEQAPCICLEEITATEI
# B4: TSC22D4: human host interactor protein, Gene ID 81628, expressed from transfected ORF vector (protein)
# chain: MSGGKKKSSFQITSVTTDYEGPGSPGASDPPTPQPPTGPPPRLPNGEPSPDPGGKGTPRNGSPPPGAPSSRFRVVKLPHGLGEPYRRGRWTCVDVYERDLEPHSFGGLLEGIRGASGGAGGRSLDSRLELASLGLGAPTPPSGLSQGPTSWLRPPPTSPGPQARSFTGGLGQLVVPSKAKAEKPPLSASSPQQRPPEPETGESAGTSRAATPLPSLRVEAEAGGSGARTPPLSRRKAVDMRLRMELGAPEEMGQVPPLDSRPSSPALYFTHDASLVHKSPDPFGAVAAQKFSLAHSMLAISGHLDSDDDSGSGSLVGIDNKIEQAMDLVKSHLMFAVREEVEVLKEQIRELAERNAALEQENGLLRALASPEQLAQLPSSGVPRLGPPAPNGPSV
# B5: C10orf3: human host interactor protein, Gene ID 55165, expressed from transfected ORF vector (protein)
# chain: MSSRSTKDLIKSKWGSKPSNSKSETTLEKLKGEIAHLKTSVDEITSGKGKLTDKERHRLLEKIRVLEAEKEKNAYQLTEKDKEIQRLRDQLKARYSTTTLLEQLEETTREGERREQVLKALSEEKDVLKQQLSAATSRIAELESKTNTLRLSQTVAPNCFNSSINNIHEMEIQLKDALEKNQQWLVYDQQREVYVKGLLAKIFELEKKTETAAHSLPQQTKKPESEGYLQEEKQKCYNDLLASAKKDLEVERQTITQLSFELSEFRRKYEETQKEVHNLNQLLYSQRRADVQHLEDDRHKTEKIQKLREENDIARGKLEEEKKRSEELLSQVQFLYTSLLKQQEEQTRVALLEQQMQACTLDFENEKLDRQHVQHQLHVILKELRKARNQITQLESLKQLHEFAITEPLVTFQGETENREKVAASPKSPTAALNESLVECPKCNIQYPATEHRDLLVHVEYCSK
# How the values were obtained:
# [1] = test system: HIV-1 LTR promoter transactivation by HIV-1 Tat; assay: Transactivation assay, HIV-1 LTR luciferase reporter with HIV-1 Tat; type: cell-based; details: HEK293 cells co-transfected with pHIV1LTR-Luc, HIV-1 Tat and the human ORF; relative luciferase activity 24 h post-transfection; positive if >=2 or <=0.5 and p<0.05
# Summary of the method: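 HEK293 cells (10^4) were calcium-phosphate co-transfected with the HIV-1 LTR-luciferase reporter plus HIV-1 Tat, or the HTLV-1 LTR-luciferase reporter plus HTLV-1 Tax, each with a human ORF expression plasmid. A hit required relative activity ≥2 or ≤0.5 with paired t-test p<0.05.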
# [2] = test system: HTLV-1 LTR promoter transactivation by HTLV-1 Tax; assay: Transactivation assay, HTLV-1 LTR luciferase reporter with HTLV-1 Tax; type: cell-based; details: HEK293 cells co-transfected with pHTLV1LTR-Luc, HTLV-1 Tax and the human ORF; relative luciferase activity 24 h post-transfection; positive if >=2 or <=0.5 and p<0.05
Molecule,HIV_LTR transactiv. [1] [fold change],HTLV_LTR transactiv. [2] [fold change]
B1,0.19,0.45
B2,0.28,5.24
B3,0.49,0.23
B4,5.43,3.75
B5,2.79,0.41
